# According to publication PMC3099344 (Structure (London, England : 1993), 2011):
# B1: D. melanogaster Boca structured domain (dmBocaSD) (domain or fragment, Drosophila melanogaster)
# chain: GSQKHMSKKGRTLMTFVSVTGNPTREESDTITKLWQTSLWNNHIQAERYMVDDNRAIFLFKDGTQAWDAKDFLIEQERCKGVTIENKEYPG
# B2: Selenomethionyl D. melanogaster Boca structured domain (SeMet dmBocaSD) (domain or fragment, Drosophila melanogaster)
# chain: B1 chain
# modifications: selenomethionyl (SeMet) protein
# B3: D. melanogaster Boca conserved core (dmBocaCC) (domain or fragment, Drosophila melanogaster)
# chain: GSHMKKDIRDYSEADLERLLDQWEEDEEPLEDDELPEHLRPQPKLDLSNLDSKSPEDLLKVSKKGRTLMTFVSVTGNPTREESDTITKLWQTSLWNNHIQAERYMVDDNRAIFLFKDGTQAWDAKDFLIEQERCKGVTIENKEYPG
# B4: M. musculus Mesd structured domain (mmMesdSD) (domain or fragment, Mus musculus)
# chain: GSHMTKKGKTLMMFVTVSGNPTEKETEEITSLWQGSLFNANYDVQRFIVGSDRAIFMLRDGSYAWEIKDFLVSQDRCAEVTLEGQMYPG
# Legend:
# [1] = molecular target: the molecule itself; assay: AUC
# [2] = molecular target: the molecule itself; assay: crystal structure
Protein,Kd [1] [µM],binding result [2]
B1,77 ± 3.1,–
B2,–,binds
B3,155 ± 4.6,–
B4,276 ± 13.8,–
